The values below come from paper PMC12700780, “The PavDREB1E–PavD8–PavHY5 module integrates light and gibberellin signals to regulate sweet cherry anthocyanin biosynthesis”.

One data set has as its target PavDREB1E-GST (Prunus avium, UniProt A0A6P5RM44 1-238). Put plainly: EMSA; unlabeled probe competes; Chemiluminescent EMSA kit (Beyotime), manufacturer's instructions; 2 ug PavDREB1E-GST in PavD8 assays; buffer, salt, pH and temperature not stated. The conditions noted are these: protein: recombinant; tags: GST; label: biotin; only one strand given.
In a further data set the target is PavDREB1E-GST;PavD8-GST (Prunus avium;Prunus avium, UniProt A0A6P5RM44;A0A6P5SVV0 1-238;1-537, |). In words: EMSA; 2 ug PavDREB1E-GST with 2, 4, 6 ug PavD8-GST; PavD8 enhances the shifted band; Chemiluminescent EMSA kit (Beyotime), manufacturer's instructions; 2 ug PavDREB1E-GST in PavD8 assays; buffer, salt, pH and temperature not stated. The conditions noted are these: protein: recombinant;recombinant; tags: GST;GST; label: biotin; only one strand given.
Sequence of PavDREB1E-GST;PavD8-GST (chain, as listed by the source |, chain 1 of 2): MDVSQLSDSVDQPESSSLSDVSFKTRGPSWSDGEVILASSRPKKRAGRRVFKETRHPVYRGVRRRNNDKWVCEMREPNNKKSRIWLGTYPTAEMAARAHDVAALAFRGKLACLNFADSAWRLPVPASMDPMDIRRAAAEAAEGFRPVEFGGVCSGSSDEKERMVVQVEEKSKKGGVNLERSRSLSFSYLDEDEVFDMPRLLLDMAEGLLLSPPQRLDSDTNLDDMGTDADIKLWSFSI
Sequence of PavDREB1E-GST;PavD8-GST (chain, as listed by the source |, chain 2 of 2): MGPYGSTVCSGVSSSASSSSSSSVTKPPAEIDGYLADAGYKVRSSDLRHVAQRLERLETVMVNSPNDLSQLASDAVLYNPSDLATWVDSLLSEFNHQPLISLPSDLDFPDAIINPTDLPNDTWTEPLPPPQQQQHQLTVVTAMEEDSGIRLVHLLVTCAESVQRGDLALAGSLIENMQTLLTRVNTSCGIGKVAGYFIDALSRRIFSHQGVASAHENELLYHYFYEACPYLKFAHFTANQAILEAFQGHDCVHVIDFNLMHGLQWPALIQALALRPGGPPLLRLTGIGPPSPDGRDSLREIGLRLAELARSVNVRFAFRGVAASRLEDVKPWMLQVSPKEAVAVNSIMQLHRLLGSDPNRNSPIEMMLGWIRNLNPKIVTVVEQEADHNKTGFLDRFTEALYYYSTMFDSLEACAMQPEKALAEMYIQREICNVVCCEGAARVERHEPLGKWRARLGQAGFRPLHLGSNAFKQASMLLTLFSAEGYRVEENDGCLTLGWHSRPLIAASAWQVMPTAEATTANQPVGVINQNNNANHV

Sequence of PavDREB1E-GST (A0A6P5RM44 entry or part of it): as the sequence (chain, as listed by the source |, chain 1 of 2) above

B1: ProPavDFR probe (dsDNA)
DNA 1: GTAATTACCACCGACCAAAAAAGAACATTG
DNA 2: CAATGTTCTTTTTTGGTCGGTGGTAATTAC
Take B1: the binding result in the data set with PavDREB1E-GST and with PavDREB1E-GST;PavD8-GST was “binds” each time.

B2: ProPavUFGT probe (dsDNA)
DNA 1: ACTTCACGAGCTCATCGACTAATAAGAAAG
DNA 2: CTTTCTTATTAGTCGATGAGCTCGTGAAGT
Turning to B2, the binding result in the data set with PavDREB1E-GST and with PavDREB1E-GST;PavD8-GST was “binds” each time.

B3: ProPavCHS probe (dsDNA)
DNA 1: GGGAAAGAAATTAAGTCGGTAGATGATATT
DNA 2: AATATCATCTACCGACTTAATTTCTTTCCC
On to B3, for which the binding result in the data set with PavDREB1E-GST and in the data set with PavDREB1E-GST;PavD8-GST was “binds” in each case.
